Results on two molecules are retold here after patent publication US20030060613, “Novel use of calreticulin in modulating hormone responsiveness and new pharmaceuticals for treating cancer, osteoporosis and chronic inflammatory disease” (published 2003).

Data set [1] concerns RAR/RXR endogenous retinoic acid receptors (Mus musculus). The experiment in a line: cell_activity. The conditions noted are these: P19 cells, 10^-7 M retinoic acid; 0.49 without retinoic acid; 61.95 with 100 uM KLGFFKR.
Data set [2] concerns the target Androgen receptor DNA-binding domain (Rattus norvegicus, UniProt P15207 P15207:541-614). The experiment in a line: EMSA. The conditions noted are these: tags: GST fusion (pGEX-3X); label: 32P. On the procedure:
As described in Rennie et al., 1993, DNA binding domain of recombinant rat androgen receptor was prepared as a GST-fusion protein using the pGEX-3X vector and purified by glutathione-agarose affinity chromatography. p60 (calreticulin) was purified by affinity chromatography on KLGFFKR-sepharose, followed by gel electrophoresis as described in detail in Rojiani et al., 1991. […] Recombinant calreticulin (GST-fusion protein) was prepared as described by Baksh and Michalak, 1991. Gel retardation assays were carried out as described by Rennie et al., 1993. To analyze the effect of p60, or recombinant calreticulin, on receptor-DNA binding activity, the AR was pre-incubated with p60 for 30 min at 4° C. To analyze the effects of synthetic peptides, anti-calreticulin antibody, and non-immune IgG on p60 inhibition of AR-ARE binding, the peptide, antibody or IgG were pre-incubated with p60 for 30 min at 4° C. The androgen receptor preparation was then added to these mixtures and further incubated for 30 min at 4° C.
Affinity purified DNA binding domain of the recombinant rat androgen receptor (AR) was pre-incubated with or without the indicated concentrations of purified p60 at 4° C. for 30 min. After this pre-incubation the reaction mixtures were incubated with ³²P-labeled 26 base pair ARE (Rennie et al., 1993) (androgen response element), and analyzed by gel retardation assay. […]
(A gel shift assay detects complexes by their altered migration in electrophoresis.)

Sequence of Androgen receptor DNA-binding domain (P15207 541-614, one chain of several): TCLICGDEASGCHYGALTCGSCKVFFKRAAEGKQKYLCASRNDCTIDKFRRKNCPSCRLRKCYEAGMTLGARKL

In data set [1], “bRARE (RAR-beta upstream 32 bp RARE, luciferase reporter)” displayed an activity (corrected luc/bgal) of 25.7.

B1: ARE, rat probasin promoter -115 to -140 (dsDNA)
DNA 1: GTAAAGTACTCCAAGAACCTATTTGT
DNA 2: ACAAATAGGTTCTTGGAGTACTTTAC
Regarding B1, the binding result in data set [2] is “binds”.
